Reference: article PMC5031971
pKd: −log10 of the molar value.

Target: T1, CCR7 (human) (UniProt P32248)
T1 sequence: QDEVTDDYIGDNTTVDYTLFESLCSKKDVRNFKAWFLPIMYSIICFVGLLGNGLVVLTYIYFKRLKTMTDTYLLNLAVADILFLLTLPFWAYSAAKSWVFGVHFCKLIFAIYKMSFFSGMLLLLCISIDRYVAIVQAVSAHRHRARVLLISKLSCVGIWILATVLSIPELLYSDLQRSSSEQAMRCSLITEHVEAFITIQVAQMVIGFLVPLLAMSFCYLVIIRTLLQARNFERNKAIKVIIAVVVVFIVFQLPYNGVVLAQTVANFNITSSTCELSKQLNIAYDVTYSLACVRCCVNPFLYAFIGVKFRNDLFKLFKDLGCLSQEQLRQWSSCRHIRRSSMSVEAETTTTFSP
Test: flow cytometry, live cells
Details: H9 cells (CCR7 positive), Cy3-RNA; 2'-F C and 2'-F U (all pyrimidines); Flow cytometry: 2.5e5 cells in 100 uL binding buffer, 30 min, room temperature; refolding/washing buffer DPBS pH 7.0-7.4, 1 mM CaCl2, 1 mM MgCl2, 2.7 mM KCl …

| Sequence | pKd |
| --- | --- |
| GGGAGGACGAUGCGGAAUUCGUCAAAGUCGUUUAUUUCGUCUGUGCAGACGACUCGCCCGA [C-2A] | 7.19 |
| GGGAGGACGAUGCGGUGCCGCACAUUAGUCUCUGGUUGCCCACGCCAGACGACUCGCCCGA [DD9-9] | 6.95 |
